The results in this text go back to patent publication US20090196880A1 (VASGENE THERAPEUTICS, published 2009).

The target in the assay is T1, EphB4 in whole cell lysate of 293 cells stably transfected with EphB4 (human, UniProt P54760 16-987).
T1 construct: Denatured protein from the lysate of transfected 293 cells (Western blot)
T1 sequence: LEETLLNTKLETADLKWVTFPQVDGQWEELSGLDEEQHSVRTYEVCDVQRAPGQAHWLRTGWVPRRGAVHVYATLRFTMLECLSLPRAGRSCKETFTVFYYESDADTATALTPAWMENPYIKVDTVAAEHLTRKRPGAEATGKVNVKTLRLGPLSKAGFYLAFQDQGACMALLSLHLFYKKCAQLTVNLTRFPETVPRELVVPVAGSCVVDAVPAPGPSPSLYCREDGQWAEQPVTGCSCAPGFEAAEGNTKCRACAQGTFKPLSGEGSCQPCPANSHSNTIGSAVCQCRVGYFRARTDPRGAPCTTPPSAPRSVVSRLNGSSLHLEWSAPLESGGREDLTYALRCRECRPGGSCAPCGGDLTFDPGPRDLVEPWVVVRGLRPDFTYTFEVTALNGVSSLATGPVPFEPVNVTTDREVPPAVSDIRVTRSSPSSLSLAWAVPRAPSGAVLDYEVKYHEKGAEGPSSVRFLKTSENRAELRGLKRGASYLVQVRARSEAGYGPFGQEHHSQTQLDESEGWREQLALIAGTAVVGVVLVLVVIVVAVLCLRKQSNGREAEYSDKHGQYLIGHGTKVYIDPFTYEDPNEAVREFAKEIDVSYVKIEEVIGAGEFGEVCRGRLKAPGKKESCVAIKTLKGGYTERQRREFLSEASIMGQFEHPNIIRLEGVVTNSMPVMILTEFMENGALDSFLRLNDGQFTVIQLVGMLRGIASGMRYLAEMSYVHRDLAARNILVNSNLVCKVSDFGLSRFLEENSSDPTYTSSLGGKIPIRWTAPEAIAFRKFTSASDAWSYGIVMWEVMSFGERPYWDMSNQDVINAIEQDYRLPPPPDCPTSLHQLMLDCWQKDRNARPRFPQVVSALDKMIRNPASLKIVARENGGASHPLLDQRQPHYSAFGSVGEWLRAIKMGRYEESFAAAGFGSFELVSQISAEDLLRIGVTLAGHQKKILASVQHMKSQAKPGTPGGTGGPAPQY
The experiment in a line: Western blot on lysate of EphB4-transfected 293 cells. On the technique in general: A western blot detects proteins with antibodies after separation by electrophoresis.

B1: mouse monoclonal antibody #131 (antibody, V domains shown)
VH: QVQLKQSGAELVKPGASVKISCKASGYTFTDYYINWVKQRPGQGLEWIGKIGPRIGTNYYNENFKGKATLTADISSNTAYMQLHTLTSEDSAVYFCARSEDYSGYVSYALDYWGQGTSVTVSS
VL: NIVMTQSPKSMSMSVGERVTLSCKASENVDTYVSWYQQKPDQSPELLIYGASNRYTGVPDRFTGSGSATDFTLTISSVQAEDLADYHCGQTYRYPFTFGGGTKLEIK
notes: also called m131
Turning to B1, the binding result is reported as “binds”.

B2: mouse monoclonal antibody #47 (antibody, V domains shown)
VH: EVQLQQSGPELVKPGASVKISCKASGYTFTDYYMNWVKQSHGKGLEWIGDNNPNNGGTTYNQKFKGKATLTVDKSSSTAYMELRSLTSEDSAVYYCARGKYYGTSYGWYFDVWGTGTTVTVSS
VL: DIQMTQSPASLSASVGETVTITCRISDNIDSYLAWFQQKQGKSPQLLVYDATVLADGVPSRFSGSGSGTQYSLKINSLQSEDAARYYCQVYYSIPWTFGGGTKLEIK
notes: also called m47; Mu #47
For B2, the binding result is “binds”.
